Substrate in series [1]: CC=O
Put plainly: AdhA alcohol dehydrogenase enzyme assay, Michaelis-Menten kinetics in cell extracts of P. furiosus strain A. The class given is biochemical, Thermoanaerobacter strain X514. Conditions: other: recombinant AdhA in cell extracts of P. furiosus strain A, 50 mM Mops pH 7.5, 2 mM DTT, 70° C., nonlinear regression.

Substrate in series [2]: CCCC=O
The series is described as above. The class given is biochemical, Thermoanaerobacter strain X514. The conditions noted are these: other: recombinant AdhA in cell extracts of P. furiosus strain A, 50 mM Mops pH 7.5, 2 mM DTT, 70° C., nonlinear regression.

B1: T. X514 AdhA (Thermoanaerobacter ethanolicus) (protein)
chain: MWETKINPNKVFELRCKNTTYFGIGSIKKIKDILEVLKNKGINNVILVTGKGSYKASGAWDVVKPALETLGFKYSLYDKVGPNPTVDMIDEAAKIGRETGAKAVIGIGGGSPIDTAKSVAVLLEYTDKNARELYEQKFIPEKAAPIIAINLTHGTGTEVDRFAVATIPEKNYKPAIAYDCLYPMYAIDDPSLMTKLDKKQTIAVTIDALNHVTEAATTLVASPYSVLMAKETVRLIVRYLPAAVNDPENLVARYYLLYASALAGISFDNGLLHLTHALEHPLSAVKPEIAHGLGLGAILPAVVKAIYPSVAEVLAEVYSPIVPGLKGLPAEAEYVAKKVEEWLFKVGCTQKLSDFGFTKEDIPTLVRLAKTTPSLDGLLSNAPVEATEAVIAKIYEESF
B1: the Km in series [1] stood at 63 µM; in series [2], 166 µM.

(Values after patent publication US20150275238A1, “GENETICALLY ENGINEERED MICROBES AND METHODS FOR CONVERTING ORGANIC ACIDS TO ALCOHOLS” (UNIVERSITY OF GEORGIA RESEARCH FOUNDATION, INC., priority 2014, published 2015).)
